Results taken from US20150139990A1 (DAINIPPON SUMITOMO PHARMA, published 2015).

Key:
[1] = biological target: T1, human CD81 on CD81-expressing cells (Jurkat E6.1, human PBMC, Ramos) (human, UniProt P60033 1-236); test: cell-based or functional assay
T1 sequence: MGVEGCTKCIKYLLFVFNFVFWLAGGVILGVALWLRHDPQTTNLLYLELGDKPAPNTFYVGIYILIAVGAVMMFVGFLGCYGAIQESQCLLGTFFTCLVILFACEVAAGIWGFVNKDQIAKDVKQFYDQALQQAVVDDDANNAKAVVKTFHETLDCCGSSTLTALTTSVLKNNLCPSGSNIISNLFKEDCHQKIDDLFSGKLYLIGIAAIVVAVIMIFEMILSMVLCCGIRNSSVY

[2] = biological target: T2, human CD81 mutant S168T (human, UniProt P60033 1-236, limits assumed); test: ELISA
T2 construct: as m30; not shown: C-terminal V5 and 6xHis tags
T2 sequence: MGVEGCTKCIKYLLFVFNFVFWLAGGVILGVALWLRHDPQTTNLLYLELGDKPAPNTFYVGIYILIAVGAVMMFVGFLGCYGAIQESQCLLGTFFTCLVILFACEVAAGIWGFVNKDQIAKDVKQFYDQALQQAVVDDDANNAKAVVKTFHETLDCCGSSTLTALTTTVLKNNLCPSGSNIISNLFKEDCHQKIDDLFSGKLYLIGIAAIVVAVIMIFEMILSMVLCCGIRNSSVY

[3] = biological target: T3, human CD81 mutant A164V (human, UniProt P60033 1-236, limits assumed); test: ELISA
T3 construct: as m30; not shown: C-terminal V5 and 6xHis tags
T3 sequence: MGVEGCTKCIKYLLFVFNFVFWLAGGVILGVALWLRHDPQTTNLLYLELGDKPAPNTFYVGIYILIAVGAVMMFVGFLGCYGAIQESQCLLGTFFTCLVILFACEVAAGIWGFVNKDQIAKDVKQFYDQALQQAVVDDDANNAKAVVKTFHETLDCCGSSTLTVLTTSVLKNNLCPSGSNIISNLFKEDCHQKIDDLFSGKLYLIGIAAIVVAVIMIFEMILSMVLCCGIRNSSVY

[4] = biological target: T4, human CD81 mutant V169L (human, UniProt P60033 1-236, limits assumed); test: ELISA
T4 construct: as m30; not shown: C-terminal V5 and 6xHis tags
T4 sequence: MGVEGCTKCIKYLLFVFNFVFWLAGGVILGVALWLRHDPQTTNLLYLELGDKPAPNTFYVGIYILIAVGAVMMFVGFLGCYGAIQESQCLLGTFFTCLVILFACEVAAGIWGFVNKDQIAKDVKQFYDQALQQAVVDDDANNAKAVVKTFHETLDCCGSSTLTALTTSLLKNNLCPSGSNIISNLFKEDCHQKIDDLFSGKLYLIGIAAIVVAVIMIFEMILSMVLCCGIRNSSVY

[5] = biological target: T5, human CD81 mutant I194A (human, UniProt P60033 1-236, limits assumed); test: ELISA
T5 construct: as m30; not shown: C-terminal V5 and 6xHis tags
T5 sequence: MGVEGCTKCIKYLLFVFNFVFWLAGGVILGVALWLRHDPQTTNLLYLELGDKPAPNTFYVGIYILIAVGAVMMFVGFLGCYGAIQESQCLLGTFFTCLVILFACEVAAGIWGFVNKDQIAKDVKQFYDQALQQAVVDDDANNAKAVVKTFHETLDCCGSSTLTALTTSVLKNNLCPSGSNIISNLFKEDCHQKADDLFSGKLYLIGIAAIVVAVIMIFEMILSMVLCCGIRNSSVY

[6] = biological target: T6, human CD81 mutant V135A (human, UniProt P60033 1-236, limits assumed); test: ELISA
T6 construct: as m30; not shown: C-terminal V5 and 6xHis tags
T6 sequence: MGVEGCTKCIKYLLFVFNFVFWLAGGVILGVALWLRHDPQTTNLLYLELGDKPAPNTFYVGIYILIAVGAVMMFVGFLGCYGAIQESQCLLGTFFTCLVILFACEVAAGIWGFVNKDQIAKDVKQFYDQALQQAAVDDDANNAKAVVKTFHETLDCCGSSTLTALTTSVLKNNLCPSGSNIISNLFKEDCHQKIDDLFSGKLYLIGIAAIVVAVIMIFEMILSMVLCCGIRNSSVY

[7] = biological target: T7, human CD81 mutant V169A (human, UniProt P60033 1-236, limits assumed); test: ELISA
T7 construct: as m30; not shown: C-terminal V5 and 6xHis tags
T7 sequence: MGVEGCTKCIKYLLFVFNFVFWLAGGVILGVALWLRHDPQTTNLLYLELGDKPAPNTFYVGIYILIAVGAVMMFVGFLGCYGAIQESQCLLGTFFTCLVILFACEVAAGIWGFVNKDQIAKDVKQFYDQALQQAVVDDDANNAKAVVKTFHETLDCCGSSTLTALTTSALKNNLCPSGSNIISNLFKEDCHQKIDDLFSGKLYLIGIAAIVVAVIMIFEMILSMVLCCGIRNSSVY

[8] = biological target: T8, human CD81 mutant S168A (human, UniProt P60033 1-236, limits assumed); test: ELISA
T8 construct: as m30; not shown: C-terminal V5 and 6xHis tags
T8 sequence: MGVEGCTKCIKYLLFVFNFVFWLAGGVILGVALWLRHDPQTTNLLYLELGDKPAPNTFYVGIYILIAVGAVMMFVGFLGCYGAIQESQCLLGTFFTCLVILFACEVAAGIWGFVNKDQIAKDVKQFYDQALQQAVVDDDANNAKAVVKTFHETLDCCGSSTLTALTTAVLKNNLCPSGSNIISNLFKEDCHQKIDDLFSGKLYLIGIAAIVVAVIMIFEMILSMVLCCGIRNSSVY

[9] = biological target: T9, human CD81 mutant L165A (human, UniProt P60033 1-236, limits assumed); test: ELISA
T9 construct: as m30; not shown: C-terminal V5 and 6xHis tags
T9 sequence: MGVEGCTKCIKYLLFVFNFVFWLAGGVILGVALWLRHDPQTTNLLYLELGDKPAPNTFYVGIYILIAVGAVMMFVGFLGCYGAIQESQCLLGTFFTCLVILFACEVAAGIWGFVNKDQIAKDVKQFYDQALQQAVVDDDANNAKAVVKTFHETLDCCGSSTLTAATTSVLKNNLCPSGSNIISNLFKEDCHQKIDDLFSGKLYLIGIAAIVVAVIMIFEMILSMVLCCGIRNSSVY

[10] = biological target: T10, human CD81 mutant A164T (human, UniProt P60033 1-236, limits assumed); test: ELISA
T10 construct: as m30; not shown: C-terminal V5 and 6xHis tags
T10 sequence: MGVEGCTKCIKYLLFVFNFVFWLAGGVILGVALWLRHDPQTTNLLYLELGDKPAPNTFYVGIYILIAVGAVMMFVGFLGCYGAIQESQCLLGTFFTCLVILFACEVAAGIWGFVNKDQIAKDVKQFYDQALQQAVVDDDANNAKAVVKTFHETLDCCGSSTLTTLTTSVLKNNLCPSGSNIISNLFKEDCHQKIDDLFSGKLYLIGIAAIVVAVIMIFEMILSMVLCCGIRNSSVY

B1: 002-F05 (antibody, human IgG4 S228P, lambda, V domains shown)
VH: EVQLLESGGGLVQPGGSLRLSCAASGFTFSSNYMSWVRQAPGKGLEWVSYISSSSTYTDYADSVKGRFTISRDNSKNTLYLQMNSLRAEDTAVYYCARYSYGRDDFDYWGQGTLVTVSS
VL: QSVLTQPASASGTPGQRVTISCTGSTSNIGAGYDTHWYQQLPGTAPKLLIYGNSNRPSGVPDRFSGSKSGTSASLAISGLRSEDEADYYCQSYDTNLNVWVFGGGTKLTVLG
notes: IgG4 S228P
- Jurkat chemotaxis (% of control IgG4) at 0.001 µg/mL [1]: 102%
- Jurkat chemotaxis (% of control IgG4) at 0.01 µg/mL [1]: 79%
- Jurkat chemotaxis (% of control IgG4) at 0.1 µg/mL [1]: 27%
- Jurkat chemotaxis (% of control IgG4) at 1 µg/mL [1]: 5%
- Jurkat chemotaxis (% of control IgG4) at 10 µg/mL [1]: 7%
- relative binding affinity [2]: < 20%
- relative binding affinity [3]: < 20%
- relative binding affinity [4]: < 20%
- relative binding affinity [5]: < 20%
- relative binding affinity [6]: < 20%
- relative binding affinity [7]: < 20%
- relative binding affinity [8]: < 20%
- relative binding affinity [9]: < 20%
- relative binding affinity [10]: < 20%
